The stoichiometry N is a count of units in the complex or per binding partner.

Drawing on publication PMC5131608, this text covers stoichiometry N for one substance.

The target in this experiment is Tt1219^33-236 (T. thermophilus HB8). Briefly: SEC; size exclusion chromatography of Tt1219^33-236 alone (Supplementary Fig. 1). (In general: Size exclusion chromatography separates by hydrodynamic size, large species first.)

As to Tt1219^33-236 (domain or fragment), the stoichiometry N stood at 2.
